# Test results reported in the supplement of paper PMC10567573.
# ± gives the standard deviation.
# Assay: protein stability index of a GFP-peptide fusion (GPS, HEK-293T) (PSI 1-6); higher = more stable
# Details: c terminus: a fixed tail appended
# 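Note: 24-mer peptide tiles fused after GFP, lentivirally expressed, FACS-sorted into six equal bins by GFP/DsRed ratio, decoded by Illumina sequencing, PSI is the read-weighted mean bin number.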
Sequence,protein stability index (treatment: DMSO),"protein stability index (treatment: MLN4924 1 uM, 8 h)"
KLRHDLKKTSITQQPSKHRTDEEL [PLK2],4.915 ± 0.039,5.1 ± 0.15
PEPQVPGPAHGPAQEEPWEKKESL [ZNF232],5.55 ± 0.29,5.62 ± 0.2
APGSSVEYQCQNLYQLEGNNQITC [CFHR2],3.88 ± 0.12,3.88 ± 0.17
VKEGGSYGFSLKTVQGKKGVYMTD [PDZK1],3.39 ± 0.41,3.08 ± 0.53
TELLAKITNTDVDCLKACQEQIEA [CCND2],4.45 ± 0.046,4.61 ± 0.32
DSSEEESHRVVLRPRGKERHKSGV [LYSMD4],5.21 ± 0.28,5.14 ± 0.11
TYRRLLEDGEDFNLGDALDSSNSM [KRT18],4.29 ± 0.14,4.52 ± 0.21
TIYGKTFRVVDCDQFTQVFLESQG [EFHC1],2.19 ± 0.25,2.29 ± 0.39
GQVAEDRFPESHLPIQTPGAFLRT [TLE6],3.53 ± 0.48,3.99 ± 0.38
SFVYVNPEDGRIFAQRTFDYELLQ [PCDHGC5],2.2 ± 0.26,2.56 ± 0.28
ALRKTGQYSGMLDCARRILAREGV [SLC25A25],2.29 ± 0.18,2.27 ± 0.15
EASQLRRLNIKKDDEFFHFVLLCF [TMEM40],2.15 ± 0.25,2.22 ± 0.26
EMKEFSSQLAGQVNVEMDAAPGVD [KRT15],5.29 ± 0.24,5.07 ± 0.11
NLLQDSSTSDSDLTCDSSTSSSDD [C18orf25],5.53 ± 0.3,5.61 ± 0.16
KGLEDTKSPQFNRYFYLLENIAWV [PDS5B],2.44 ± 0.89,2.31 ± 0.37
LPFVLAAAVSRKKKRRMGTYSLVP [EHMT1],2.34 ± 0.26,2.27 ± 0.24
KGMVLDENYNNLANAVISVSGINH [CPN1],3.06 ± 0.086,3.02 ± 0.29

Sequence,protein stability index (treatment: DMSO),"protein stability index (treatment: MLN4924 1 uM, 8 h)"
HCPESGEEAVILLEDLERELDEPQ [ZSCAN9],5.55 ± 0.24,5.46 ± 0.44
ALSRKKSQGLAREQHAGTSEGLHL [FBF1],4.26 ± 0.28,3.78 ± 0.42
FKMLDPDGKGKINKEYIKRLLMSQ [MYL5],2.41 ± 0.28,2.63 ± 0.3
LEGWRPDQLYRRKKDNHALVRETD [ELOA2],4.45 ± 0.16,4.57 ± 0.12
FMPQGAGGHTREARIQTLEPDNWM [RSAD1],3.27 ± 0.33,3.11 ± 0.29
LEQMGALAVRGSRRERELERRELA [ZBED3],5 ± 0.37,4.76 ± 0.34
NHHSPGGSSDASGSYSSTMNGHQN [ESRRG],4.86 ± 0.23,5.05 ± 0.17
ELQEKQKNEKLISLQEQLQRFLKK [TAF7L],3.36 ± 0.33,3.39 ± 0.15
EVYYAKKKRRAQQAPPQDSSNKKE [DYRK1B],4.45 ± 0.28,4.77 ± 0.24
DDKHYGGFTNKQLQSGQEYVFFVL [PTPRD],2.64 ± 0.53,2.55 ± 0.43
MKDISNLEENDETRFILSKVPSEA [SLC6A17],4.91 ± 0.24,4.94 ± 0.15
KYELMRPSNKAPLLVLCEDHRGRM [EHMT1],2.57 ± 0.28,2.78 ± 0.26
PAFVKFAYVAEREDELSLVKGSRV [NCK2],3.09 ± 0.34,3.08 ± 0.39
GGFGQVYKVRHVHWKTWLAIKCSP [RIPK4],2.35 ± 0.85,2.05 ± 0.32
TFEYTLLQPPHESRPQPIYYGFSE [ADAMTSL2],2.47 ± 0.28,2.58 ± 0.51
DSGTCPEVDEEGFTVRPDVTQNST [FCHO1],5.43 ± 0.28,5.4 ± 0.15
